Among the data in paper PMC7935746 are stoichiometry N values, retold here.

For assay [1], the target named is His-tagged TriC transporter (Pseudomonas aeruginosa). In words: SEC.
Assay [2] shares this target. In words: cryo-EM structure.

Take “His-tagged TriC transporter (natural protein)”: the stoichiometry N in assay [1] and in assay [2] was 3 each time. The substance “fused TriAB dimer (TriA and TriB on one polypeptide)” had a stoichiometry N in assay [1] of 1.
